In article PMC7726437 (2020):

Legend:
Experiment in all cases: BLI
[1] = target: T1, anti-idiotype vNAR-Fc variant S9 (bamboo shark, biotin (EZ-Link Sulfo-NHS-LC-Biotin) in the cellular binding assay only)
T1 chain: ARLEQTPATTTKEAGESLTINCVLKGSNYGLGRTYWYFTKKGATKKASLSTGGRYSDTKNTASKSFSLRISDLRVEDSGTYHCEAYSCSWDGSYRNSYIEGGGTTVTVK

[2] = target: T2, anti-idiotype vNAR-Fc variant S2 (bamboo shark, biotin (EZ-Link Sulfo-NHS-LC-Biotin) in the cellular binding assay only)
T2 chain: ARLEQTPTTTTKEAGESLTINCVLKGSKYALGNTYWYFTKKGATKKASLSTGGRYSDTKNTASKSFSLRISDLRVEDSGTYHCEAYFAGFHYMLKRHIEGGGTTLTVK

[3] = target: T3, anti-idiotype vNAR-Fc variant S4 (bamboo shark)
T3 chain: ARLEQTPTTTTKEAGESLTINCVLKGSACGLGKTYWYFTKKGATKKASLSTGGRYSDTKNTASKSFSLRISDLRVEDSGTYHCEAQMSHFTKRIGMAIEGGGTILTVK

[4] = target: T4, anti-idiotype vNAR-Fc variant S7 (bamboo shark)
T4 chain: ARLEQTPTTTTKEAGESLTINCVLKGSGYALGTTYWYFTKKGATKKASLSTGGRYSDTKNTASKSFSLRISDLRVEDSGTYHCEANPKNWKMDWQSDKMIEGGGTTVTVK

Kd [1]: 11 nM
Kd [2]: 4.5 nM
Kd [3]: 5.3 nM
Kd [4]: 1.9 nM
B1: soluble recombinant B-cell receptor (BCR) of lymphoma cell line SUP-B8, produced as full-length IgG (antibody, V domains shown)
VH: LVQSGGEVKKPGASVKVSCKASGYTFHSYGITWVRQAPGQGLEWMGWINGYNGYTNYAQKLQDRVTMTTNTSTNTVYMEVRSLRSDDTAVYYCARDDCSGDNCYMSAYWGQGTVVTVSS
VL: QSVLTQPPSASGTPGQRVTISCSGSSSNIASNYVYWYQQLPGMAPKLLIYRDNQRPSGVPDRFSGSRSGTSASLAISGLRSDDEADYYCATWDDSLSGWVFGGGTKLTVL
